Measurements: publication PMC8885691, “Leveraging the multivalent p53 peptide-MdmX interaction to guide the improvement of small molecule inhibitors” (Nature Communications, 2022)
pKd: −log10 of the molar value.

Molecular target: p53-binding domain of human MdmX (N-MdmX, amino acids 22-110) (human) (UniProt O15151)
Experiment: ITC; ITC-200 at 25 °C; 19 injections of 2.0 µL of ~0.2 mM ligand into ~10–20 µM protein in the cell; one-set-of-binding-sites model

Sequence of p53-binding domain of human MdmX (N-MdmX, amino acids 22-110) (human) (O15151 22-110): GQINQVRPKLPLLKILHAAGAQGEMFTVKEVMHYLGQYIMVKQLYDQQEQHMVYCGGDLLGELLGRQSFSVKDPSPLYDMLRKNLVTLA

p53 transactivation domain peptide (p53p)
pKd: 6.44
